experiment: label from the status in PepcDB records

| Sequence | protein production |
| --- | --- |
| MSLGTIIIVDDNKGVLTAVQLLLKNHFSKVITLSSPVSLSTVLREENPEVVLLDMNFTSGINNGNEGLFWLHEIKRQYRDLPVVLFTAYADIDLAVRGIKEGASDFVVKPWDNQKLLETLLNAASQAKDGKKEGHHHHHH | not failed |
| MSLGVLRYTLRARGHPNVTAGHRTTFEVTVDPEIGETADCIIGVSSSDSISTLPDEMKRAIARESSLVRVILRTENGYDEIRGYGHPELTLDHPTDIVCRKSDYICSRTLMIRADKAAFDLDENLVRDLRKGRELKVEIIVEYEGHHHHHH | not failed |
| MSLITNAKLYPPRHPRAVHLAHHLAAIAPGVLVTAAIAAAAVGLRAIPGMPGISPMLLAILIGIVAHNGIGTPSWAVPGVKFSLRRVLRFAIILLGLQLTTAQLIEVGGEGLAIIAATLLATFCFTVWFGRVLGVDRKLTELIAAGTSICGASAIIATNTVTRADDEDVAYGVACVTVFGSLAMVSYPLLQSVLNLDAHGFGLWTGASIHEIAQAVAVSFQGGQRAGEFGTIAKLSRVMMLAPLVIGLGMLARVRAKHQPAGDHTATPPMPWFVLGFVAMIGVNEFVAIPHEAKSWIVAITAFLLSMALAAMGLETDLRKLAARGLRPALLGLTASLFIAGFSLALIKLTGWHG | failed |
| MSLIVSTIASHSSLQILLGAKKEGFKTRLYVSPKRRPFYSSLPIVDDLVVAEEMTSILNDDGIVVPHGSFVAYLGIEAIEKAKARFFGNRRFLKWETTFELQDKALEGAGIPRVEVVEPEDAKPDELYFVRIEGPRGGSGHFIVEGSELEERLSTLEEPYRVERFIPGVYLYVHFFYSPILERLELLGVDERVLIADGNARWPVKPLPYTIVGNRAIALRESLLPQLYDYGLAFVRTMRELEPPGVIGPFALHFAYDGSFKAIGIASRIDGGSNADHWYSELYWGERLSMGRRIARELRLAEEEDRLEEVVTEGHHHHHH | not failed |
| MSLKAVIFDLDGVITDTAEYHFLAWKHIAEQIDIPFDRDMNERLKGISREESLESILIFGGAETKYTNAEKQELMHRKNRDYQMLISKLTPEDLLPGIGRLLCQLKNENIKIGLASSSRNAPKILRRLAIIDDFHAIVDPTTLAKGKPDPDIFLTAAAMLDVSPADCAAIEDAEAGISAIKSAGMFAVGVGQGQPMLGADLVVRQTSDLTLELLHEEWEQYRIRESEGHHHHHH | not failed |
| MSLKIAVLDDYQDAVRKLDCFNLLQDHEVKVFNNTVKGVGQLAARVADVEALVLIRERTRVTRQLLDRLPKLKIISQTGRVSRDAGGHIDLDACTDKGVVVLEGKGSPVAPAELTWALVMAAQRRIPQYVASLKHGAWQQSGLKSTTMPPNFGIGRVLKGQTLGIFGYGKIGQLVAGYGRAFGMNVLVWGRENSKERARADGFAVAESKEALFEQSDVLSVHLRLNDETRSIITVADLTRMKPTALFVNTSRAELVEENGLVTALNRGRPGMAAIDVFETEPILQGHTLLRMENCICTPHIGYVERESYEMYFGIAFQNILDVLQGNVDSVANPTALAPALIRAEGHHHHHH | not failed |
| MSLKKLLLLLIIVALFISAFAFDLTQYLSLDVLKEKQQQLNQLFVDYPFQVFAIYFVVYVASTALSLPGATILTLGAGAIFGLGWGLLLASFAASLGAFLAFLSARFILHDWVQEKFGDRLTAINRGMERDGAFYLLSLRLVPLFPFFVINLVMGLTKIKAWTFYWVSQVGMLLGTAVYVNAGTQLAQISSLGDVISADLIGAFVLLGIFPLIAKAVLAFVKRRKAFKGYKKPKSFDNNLVVIGAGSAGLVSAYIAATVKAKVTLIEKHKMGGDCLNTGCVPSKALLHVAELAHNARNASSAGVHVGEVSVDFKQVMQQVKSVIKDIEPHDSVERYTKLGVDVEQGDARIVSPWEVEVTSNVEGKSETKRITTRSIIIATGAKPLVPDFEGLDKVDYLTSDTLWELDELPKRLLVLGGGPIGCELSQAFQRLGSQVTQVEMAERLMGPEDADTVELLTRRLTAEGIDIRLNHKALRFEQHNGESVLIAEQTVDNESVDNQNADQSKDVEIPFDKVLIALGRQPNITGFGLEELGVQTNKTVSTNELLQTNFPNIYACGDVAGPYQLTHVASHQAWYASVNALFDPFKTFRADYSVIPWVTYTSPQVANVGLTEQQAKKADKPYEVTEYDIGELDRAIADDSAYGRVKVLTKPGKDELLGVNIVGPQAGELLAEYVLAMKYGIGLNKILGTIHSYPTLAEANKYVAGEWKRANAPQKLLTWVEKFHRWRRS | failed |
| MSLKRFDLIIRSSTVVTETTTYRADVAIRNGIVSAITEPGSISSDDGPAIDGTGLHLFPGMVDVHVHFNEPGRTEWEGFASGSKSLAAGGVTTYFDMPLNSNPPTITREELDKKRQLANEKSLVDYRFWGGLVPGNIDHLQDLHDGGVIGFKAFMSECGTDDFQFSHDETLLKGMKKIAALGSILAVHAESNEMVNALTTIAIEEQRLTVKDYSEARPIVSELEAVERILRFAQLTCCPIHICHVSSRKVLKRIKQAKGEGVNVSVETCPHYLLFSLDEFAEIGYLAKCAPPLRERQEVEDLWDGLMAGEIDLISSDHSPSLPQMKTGKTIFEVWGGIAGCQNTLAVMLTEGYHKRKMPLTQIVQLLSTEPAKRFGLYPQKGTIQVGAEASFTLIDLNESYTLNASDLYYRHPISPYVGQRFRGKVKHTICQGKHVYQDHEGHHHHHH | not failed |
| MSLKRILIVDDDTAILDSTKQILEFEGYEVEIAATAGEGLAKIENEFFNLALFDIKLPDMEGTELLEKAHKLRPGMKKIMVTGYASLENSVFSLNAGADAYIMKPVNPRDLLEKIKEKLDEQEKEGHHHHHH | not failed |
| MSLKYIIGMDVGTTATKGVLYDINGKAVASVSKGYPLIQTKVGQAEEDPKLIFDAVQEIIFDLTQKIDGKIAAISWSSQMHSLIGLGSDDELLTNSITWADNCAKSIVQDAKNRGFAQQIYRKTGMPMHPMAPIYKLLWLKNKKTEVFSQAQKWIGIKEYIIFRLTGKLVTDTTMAAGTGILNLKTLTWDQELLDILKIKKEQLPKIAQPTKVIFPIKTEYVKKLGIDSDTKIILGASDGYLSTIGVNAIDSDHCALNVGTSGAIRTIVDQPKIDPSASYFCYPADKTHYLLGGPVNNGGIVFNWARQTLFDADETPQDFLDVAQTAPAGSRNLIFLPYLGGERAPIWDANARGSFVGLTRMHQKPEMARAVIEGIIFNLYDAASNLIKNTKKPVAINATGGFLKSDFVRQLCANIFNVPIVTMKEQQSGTLAAMFLARQALGLNQDLSEIGQFAQADKVYFPNPKEAATYQKLFPLYCEIRNALAASYGKFSNINEGHHHHHH | not failed |
| MSLLHIAVLLPLIFALIIPFLYRFVKRIHLGWFVLPVPIVLFIYFISLISMTMSGNNVMKNLNWMPHIGMNFNLYVDGLGLLFSLLITGIGSLVVLYSIGYLSKSEQLGNFYCYLLLFMGAMLGVVLSDNFIILYLFWELTSFSSFLLISFWREKKASIYGAQKSLIITVLGGLSMLGGIILLSLATDTFSIQAMISKASDIQNSPFFILVMILFMIGAFTKSAQVPFYIWLPDAMEAPTPVSAYLHSATMVKAGLYLIARITPIFAISEGWVWTITLVGLITLFWASLNATKQHDLKGILAFSTVSQLGMIMSMLGIGAVSYHYQGANSQLYVAGFVAAIFHLINHATFKGALFMITGGIDHSTGTRDVKKLGGLLTIMPISFTLTVITTLSMAGVPPFNGFLSKEKFLESMINVTHLNLMSLNTLGILLPIIAIIGSIFTFVYSIKFILHIFFGSYKPEALPKQAHESSILMLISPIILTSLVIVFGLFPSILTQSIIEPASVAVSQTSNITAEFHLFHGITPAFLSTIGIYIIGILLLISFSYWVRLLQAHPYQLTLNHWYDTSGQRIPGYSENITNSYVTGFSRNNLVIILGILIALTFVTVISVPFSIDFKNVSHLRVFEGATVLFLLIASTFIIFAKSRLFSIIMLSAVGYAISVLFIFFKAPDLALTQFVVESISTALFLLCFYHLPNLNRYNEKPTFKLTNAVISIGVGLSVIILGLIGYGNRHFDSITKFYQEHVFDLAHGKNMVNVILVDFRGMDTLFESSVLGIAGLGVYTMIKLRLKQKNQSSEVNDHE | failed |
| MSLLTLAFNPQPRAKTYCSGPILRVSGVWAVKILYIVLDGAADSPTSPRKTLEEASKPNIDSLGSHAVCGMVYTVKPGVAPQSDYATLSLLGYNPDEYYPGRGPLEAFGAGIEMRRGDIALRANFATVDPGTLRIIDRRVGRSLTSREARELASAVDGMELEDGEGTALFRATIGHRGVLVLRHRSKPLSDAISNTDPAYERRGRFSVALEKYEPFIKLSNPLVEDEAAVLAARMLNEFTLKAVEILDSHPVNLAREKRGLLKANAILSRDAGGLPEEKPPSFQERFGLRGASIVEMVVERGISRYIGLDDIRVEIEGRAREEVYREEAARAVEALETHDLVYVHLKGPDEPGHDGSFEGKIRAVEDIDKHFFAPLLDRLSSAGLEPAFVVTSDHATPWDVGAHSGDPVPLMISHQSIQGSIGKFSETVCLRGRLGTIIGGYRIIPKTLSLLAGLEHHHHHH | not failed |

Source: a protein production outcome set (Wang et al. 2014)
